Experimental data reported in patent publication US6312887.

Target: T1, STAT-1alpha wild type (transfected in U3A cells) (Homo sapiens) (UniProt P42224)
T1 sequence: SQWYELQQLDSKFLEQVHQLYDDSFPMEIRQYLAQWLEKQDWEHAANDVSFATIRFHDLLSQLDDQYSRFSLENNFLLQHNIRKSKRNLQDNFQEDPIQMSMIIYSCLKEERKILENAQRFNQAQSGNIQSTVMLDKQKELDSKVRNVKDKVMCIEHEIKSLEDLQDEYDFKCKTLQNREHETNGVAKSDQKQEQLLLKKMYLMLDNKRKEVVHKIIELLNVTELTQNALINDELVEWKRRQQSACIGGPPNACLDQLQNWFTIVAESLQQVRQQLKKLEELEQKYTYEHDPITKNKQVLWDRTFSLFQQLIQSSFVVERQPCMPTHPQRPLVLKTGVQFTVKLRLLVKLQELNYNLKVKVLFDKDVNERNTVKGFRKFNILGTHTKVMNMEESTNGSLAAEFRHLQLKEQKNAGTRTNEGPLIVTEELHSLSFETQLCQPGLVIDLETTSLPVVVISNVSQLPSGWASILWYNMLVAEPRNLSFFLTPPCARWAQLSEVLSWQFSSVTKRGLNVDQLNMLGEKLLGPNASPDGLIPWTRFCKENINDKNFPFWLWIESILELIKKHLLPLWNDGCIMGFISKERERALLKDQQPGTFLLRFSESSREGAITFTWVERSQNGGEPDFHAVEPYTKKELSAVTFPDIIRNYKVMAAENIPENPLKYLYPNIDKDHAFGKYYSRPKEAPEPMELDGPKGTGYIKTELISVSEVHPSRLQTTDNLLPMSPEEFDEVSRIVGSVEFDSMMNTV
Assay: cell_activity
Conditions: luciferase reporter in U3A cells, IFN-gamma 5 ng/ml 10 h

For “GATCAGTTCCCGTCAATCNATGATCCAGTTCCCGTCAATGATCCCCGGGATC (double strand) [tandem weak c-fos STAT-1 sites reporter enhancer]”, the activity (fold induction) was 2.
